Measured values as given in paper PMC4176181, “Multifaceted role of the Topo IIIα–RMI1-RMI2 complex and DNA2 in the BLM-dependent pathway of DNA break end resection”.

T1: RMI1-RMI2 (Homo sapiens, UniProt Q9H9A7;Q96E14 1-625;1-147)
T1 sequence 1: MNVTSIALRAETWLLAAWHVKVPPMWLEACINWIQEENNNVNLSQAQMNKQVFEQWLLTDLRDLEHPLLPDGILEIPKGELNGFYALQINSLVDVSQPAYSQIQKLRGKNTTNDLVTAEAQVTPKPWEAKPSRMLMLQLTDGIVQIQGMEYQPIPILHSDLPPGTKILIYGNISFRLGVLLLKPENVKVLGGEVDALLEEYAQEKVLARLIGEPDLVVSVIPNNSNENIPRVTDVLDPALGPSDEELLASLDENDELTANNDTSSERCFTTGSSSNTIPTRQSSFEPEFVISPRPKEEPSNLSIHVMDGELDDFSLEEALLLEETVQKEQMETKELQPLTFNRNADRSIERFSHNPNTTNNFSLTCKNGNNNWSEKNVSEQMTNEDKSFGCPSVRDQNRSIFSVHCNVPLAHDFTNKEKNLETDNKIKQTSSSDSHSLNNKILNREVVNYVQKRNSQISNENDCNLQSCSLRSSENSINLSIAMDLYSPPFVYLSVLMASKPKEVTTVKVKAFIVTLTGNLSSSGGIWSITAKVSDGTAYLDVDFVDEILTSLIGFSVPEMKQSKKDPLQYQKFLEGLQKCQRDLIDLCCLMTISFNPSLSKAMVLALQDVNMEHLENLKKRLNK
T1 sequence 2: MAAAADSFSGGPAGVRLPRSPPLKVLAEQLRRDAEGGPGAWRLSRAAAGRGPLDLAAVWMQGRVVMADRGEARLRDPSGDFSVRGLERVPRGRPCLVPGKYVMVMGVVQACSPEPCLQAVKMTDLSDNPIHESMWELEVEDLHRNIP

T2: Topo IIIα (Homo sapiens, UniProt Q13472 1-1001)
T2 sequence: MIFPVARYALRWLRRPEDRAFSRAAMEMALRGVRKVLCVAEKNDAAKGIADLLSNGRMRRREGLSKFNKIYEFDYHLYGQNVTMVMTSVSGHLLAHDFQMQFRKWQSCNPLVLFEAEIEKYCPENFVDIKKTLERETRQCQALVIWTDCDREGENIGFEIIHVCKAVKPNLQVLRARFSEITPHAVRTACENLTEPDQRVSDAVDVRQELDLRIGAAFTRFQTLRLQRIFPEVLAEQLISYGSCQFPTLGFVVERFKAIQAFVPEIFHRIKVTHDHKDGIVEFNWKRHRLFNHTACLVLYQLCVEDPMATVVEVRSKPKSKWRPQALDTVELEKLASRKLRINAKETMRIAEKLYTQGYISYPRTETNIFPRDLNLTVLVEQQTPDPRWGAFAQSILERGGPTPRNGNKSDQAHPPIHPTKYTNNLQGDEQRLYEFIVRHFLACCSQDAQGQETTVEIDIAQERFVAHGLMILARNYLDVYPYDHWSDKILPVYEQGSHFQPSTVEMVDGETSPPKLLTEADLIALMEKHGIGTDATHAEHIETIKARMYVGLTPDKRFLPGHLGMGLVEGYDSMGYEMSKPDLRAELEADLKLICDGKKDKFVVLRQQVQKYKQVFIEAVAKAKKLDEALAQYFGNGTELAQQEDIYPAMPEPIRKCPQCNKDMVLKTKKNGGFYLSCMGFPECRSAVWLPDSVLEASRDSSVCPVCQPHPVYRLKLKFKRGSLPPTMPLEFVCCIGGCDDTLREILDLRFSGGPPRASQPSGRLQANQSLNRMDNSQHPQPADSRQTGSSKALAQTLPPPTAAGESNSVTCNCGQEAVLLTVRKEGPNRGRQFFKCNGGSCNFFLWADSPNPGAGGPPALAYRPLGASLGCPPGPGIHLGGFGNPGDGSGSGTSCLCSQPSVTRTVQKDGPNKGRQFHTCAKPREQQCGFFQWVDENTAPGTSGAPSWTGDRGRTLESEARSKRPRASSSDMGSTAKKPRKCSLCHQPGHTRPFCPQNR


Tests used:
RMI1-RMI2 = biological target: T1, RMI1-RMI2; assay: EMSA; 25-100 nM protein; EMSA: 35 mM Tris-HCl pH 7.5, 1 mM DTT, 100 ng/μl BSA, 2 mM MgCl2, 100 mM NaCl, 25°C, 20 min, 5 nM DNA ends (Mg2+ and ATP omitted in Figure 3B); conditions: protein: recombinant; copies: 1;1; label: 32P; blunt
Topo IIIα [1] = biological target: T2, Topo IIIα; assay: EMSA; 25-100 nM protein; two discrete complexes; EMSA: 35 mM Tris-HCl pH 7.5, 1 mM DTT, 100 ng/μl BSA, 2 mM MgCl2, 100 mM NaCl, 25°C, 20 min, 5 nM DNA ends (Mg2+ and ATP omitted in Figure 3B); conditions: protein: recombinant; label: 32P; blunt
BLM;DNA2-D277A = BLM;DNA2-D277A (Homo sapiens;Homo sapiens, UniProt P54132;P51530 1-1417;1-1060, |D277A); assay: EMSA; 7.5-15 nM BLM with 10 or 20 nM DNA2-D277A; binding enhanced over BLM alone; no ATP, no Mg2+; EMSA: 35 mM Tris-HCl pH 7.5, 1 mM DTT, 100 ng/μl BSA, 2 mM MgCl2, 100 mM NaCl, 25°C, 20 min, 5 nM DNA ends (Mg2+ and ATP omitted in Figure 3B); conditions: protein: recombinant;recombinant; copies: 1;1; label: 32P; blunt
Sequence of BLM;DNA2-D277A (P54132 whole entry, chain 1 of 2): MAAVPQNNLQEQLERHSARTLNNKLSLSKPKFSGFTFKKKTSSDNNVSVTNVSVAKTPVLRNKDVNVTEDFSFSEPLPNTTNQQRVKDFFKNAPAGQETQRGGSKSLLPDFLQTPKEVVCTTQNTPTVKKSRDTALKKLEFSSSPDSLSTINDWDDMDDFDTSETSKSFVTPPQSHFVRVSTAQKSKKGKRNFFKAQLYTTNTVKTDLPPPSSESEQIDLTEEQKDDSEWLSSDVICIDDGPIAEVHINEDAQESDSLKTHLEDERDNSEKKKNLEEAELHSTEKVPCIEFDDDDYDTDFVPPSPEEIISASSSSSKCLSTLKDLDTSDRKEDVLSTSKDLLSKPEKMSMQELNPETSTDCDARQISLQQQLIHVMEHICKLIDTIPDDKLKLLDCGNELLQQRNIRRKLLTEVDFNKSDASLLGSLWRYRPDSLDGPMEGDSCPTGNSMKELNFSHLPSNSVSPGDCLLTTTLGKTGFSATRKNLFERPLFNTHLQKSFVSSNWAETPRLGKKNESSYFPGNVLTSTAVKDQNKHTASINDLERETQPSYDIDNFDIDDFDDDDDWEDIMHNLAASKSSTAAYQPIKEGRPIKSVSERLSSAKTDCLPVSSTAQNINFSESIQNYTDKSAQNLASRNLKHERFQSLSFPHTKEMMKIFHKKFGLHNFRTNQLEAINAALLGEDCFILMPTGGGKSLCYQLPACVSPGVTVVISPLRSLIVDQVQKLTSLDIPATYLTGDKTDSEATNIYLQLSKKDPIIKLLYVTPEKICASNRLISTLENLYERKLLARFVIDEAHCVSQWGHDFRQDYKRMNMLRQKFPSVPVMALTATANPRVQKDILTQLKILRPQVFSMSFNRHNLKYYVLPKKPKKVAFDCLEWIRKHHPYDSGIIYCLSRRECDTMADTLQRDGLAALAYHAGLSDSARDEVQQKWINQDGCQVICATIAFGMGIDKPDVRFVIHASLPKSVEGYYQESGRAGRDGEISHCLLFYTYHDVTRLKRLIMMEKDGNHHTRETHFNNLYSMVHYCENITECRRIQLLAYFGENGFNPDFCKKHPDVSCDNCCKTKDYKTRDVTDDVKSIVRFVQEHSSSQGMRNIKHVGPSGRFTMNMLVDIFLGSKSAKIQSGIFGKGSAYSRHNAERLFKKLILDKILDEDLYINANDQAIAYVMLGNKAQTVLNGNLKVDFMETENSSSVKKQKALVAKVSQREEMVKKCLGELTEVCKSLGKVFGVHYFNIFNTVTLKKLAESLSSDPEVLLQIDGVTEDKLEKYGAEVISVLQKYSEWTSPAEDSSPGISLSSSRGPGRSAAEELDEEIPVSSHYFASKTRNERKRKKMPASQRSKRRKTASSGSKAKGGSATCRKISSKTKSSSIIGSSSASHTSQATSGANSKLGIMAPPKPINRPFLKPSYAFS
Sequence of BLM;DNA2-D277A (P51530 whole entry D277A, chain 2 of 2): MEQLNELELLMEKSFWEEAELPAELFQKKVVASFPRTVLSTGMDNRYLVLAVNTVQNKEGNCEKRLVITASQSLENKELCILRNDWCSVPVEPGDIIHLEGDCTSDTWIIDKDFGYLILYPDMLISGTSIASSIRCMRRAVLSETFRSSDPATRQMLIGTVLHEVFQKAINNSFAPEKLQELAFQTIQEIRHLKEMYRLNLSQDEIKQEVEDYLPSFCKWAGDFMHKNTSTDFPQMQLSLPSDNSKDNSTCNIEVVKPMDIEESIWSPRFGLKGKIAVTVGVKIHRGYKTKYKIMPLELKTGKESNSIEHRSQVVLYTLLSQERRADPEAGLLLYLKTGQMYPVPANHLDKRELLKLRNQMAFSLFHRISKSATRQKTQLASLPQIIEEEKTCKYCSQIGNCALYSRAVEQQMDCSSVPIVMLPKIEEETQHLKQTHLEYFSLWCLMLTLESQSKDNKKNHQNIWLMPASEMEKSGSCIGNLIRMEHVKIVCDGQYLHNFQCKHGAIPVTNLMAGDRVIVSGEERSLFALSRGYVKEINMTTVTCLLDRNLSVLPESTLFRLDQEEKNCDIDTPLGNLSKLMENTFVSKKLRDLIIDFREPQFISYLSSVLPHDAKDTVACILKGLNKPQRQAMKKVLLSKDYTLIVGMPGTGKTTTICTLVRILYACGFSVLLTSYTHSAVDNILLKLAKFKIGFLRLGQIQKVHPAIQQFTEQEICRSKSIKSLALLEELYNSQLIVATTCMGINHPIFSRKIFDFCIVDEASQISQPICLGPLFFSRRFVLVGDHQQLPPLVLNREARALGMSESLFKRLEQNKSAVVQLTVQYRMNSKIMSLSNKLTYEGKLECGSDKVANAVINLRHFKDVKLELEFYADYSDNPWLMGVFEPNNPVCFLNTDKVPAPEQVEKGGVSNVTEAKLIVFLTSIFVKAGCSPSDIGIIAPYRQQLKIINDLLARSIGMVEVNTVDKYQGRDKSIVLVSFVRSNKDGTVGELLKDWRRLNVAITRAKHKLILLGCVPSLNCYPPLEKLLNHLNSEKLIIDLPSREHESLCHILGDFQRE

Topo IIIα [2] = biological target: T2, Topo IIIα; assay: EMSA; 25-100 nM protein; streptavidin on one end; shifted efficiently; EMSA: 35 mM Tris-HCl pH 7.5, 1 mM DTT, 100 ng/μl BSA, 2 mM MgCl2, 100 mM NaCl, 25°C, 20 min, 5 nM DNA ends (Mg2+ and ATP omitted in Figure 3B); conditions: protein: recombinant; label: 32P; blunt

Binder | binding result (RMI1-RMI2) | binding result (Topo IIIα [1]) | binding result (BLM;DNA2-D277A) | binding result (Topo IIIα [2])
80-mer dsDNA (dsDNA) DNA 1: TTGATAAGAGGTCATTTGAATTCATGGCTTAGAGCTTAATTGCTGAATCTGGTGCTGGGATCCAACATGTTTTAAATATG DNA 2: CATATTTAAAACATGTTGGATCCCAGCACCAGATTCAGCAATTAAGCTCTAAGCCATGAATTCAAATGACCTCTTATCAA | no binding | binds | binds | 
80-mer dsDNA, one end blocked by biotin-streptavidin (dsDNA, 5' biotin on one strand (PSOL7475 or PSOL6214; which one not stated), streptavidin bound) DNA 1: TTGATAAGAGGTCATTTGAATTCATGGCTTAGAGCTTAATTGCTGAATCTGGTGCTGGGATCCAACATGTTTTAAATATG DNA 2: CATATTTAAAACATGTTGGATCCCAGCACCAGATTCAGCAATTAAGCTCTAAGCCATGAATTCAAATGACCTCTTATCAA |  |  |  | binds
